From US8754033B2, “Peptides for inhibiting transglutaminase” (National Cancer Center, priority 2005, dated 2014)

biological target: transglutaminase (guinea pig liver, Sigma) (Cavia cutleri, UniProt P08587); experiment: not given; details: purified I-κBα with 1 mU transglutaminase, 50 mM Tris-HCl pH 7.5, 10 mM CaCl2, NuPAGE gel; in the presence of EDTA

Compound	inhibition of transglutaminase (I-κBα polymerization)
O=C(O)CN(CCN(CC(=O)O)CC(=O)O)CC(=O)O [EDTA]	inhibited

biological target: T1, TGase (UniProt P08587); experiment: Competition assay: transglutaminase-mediated I-κBα cross-linking with or without synthetic peptides; assay type: biochemical, guinea pig; details: peptide 2 nmol, I-κBα 2 μg, 0.5 mU TGase, 10 mM CaCl2, 10 min at 37° C., SDS-PAGE, Coomassie band intensity
T1 sequence (P08587 1-690): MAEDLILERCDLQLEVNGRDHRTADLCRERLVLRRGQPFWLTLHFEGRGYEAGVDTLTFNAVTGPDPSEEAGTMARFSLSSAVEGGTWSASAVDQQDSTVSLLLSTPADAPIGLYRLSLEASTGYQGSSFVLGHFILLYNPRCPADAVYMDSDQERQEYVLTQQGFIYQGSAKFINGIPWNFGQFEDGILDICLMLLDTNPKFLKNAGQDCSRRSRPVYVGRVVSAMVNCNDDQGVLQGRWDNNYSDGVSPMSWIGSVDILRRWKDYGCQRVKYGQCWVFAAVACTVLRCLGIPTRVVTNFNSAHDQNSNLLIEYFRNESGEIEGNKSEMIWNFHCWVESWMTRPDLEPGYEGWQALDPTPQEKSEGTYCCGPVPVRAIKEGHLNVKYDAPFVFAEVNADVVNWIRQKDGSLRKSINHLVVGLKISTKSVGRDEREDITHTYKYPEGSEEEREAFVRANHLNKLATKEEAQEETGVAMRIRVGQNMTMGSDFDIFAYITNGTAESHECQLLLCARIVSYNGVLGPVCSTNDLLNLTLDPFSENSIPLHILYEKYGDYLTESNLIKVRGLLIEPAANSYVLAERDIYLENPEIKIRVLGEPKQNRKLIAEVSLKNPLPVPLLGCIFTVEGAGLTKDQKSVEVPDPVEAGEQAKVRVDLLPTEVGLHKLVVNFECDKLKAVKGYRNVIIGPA
Procedure: I-κBα (2 μg) was incubated with 0.5 mU TGase in a reaction buffer containing 50 mM Tris pH 7.5 and 10 mM CaCl2, with or without the peptides (2 nmol) of Table 1, so as to observe the cross-linking of I-κBα. The peptides of Table 1 were synthesized in Peptron Inc. After incubation for 10 min at 37° C., the reactants were separated by SDS-PAGE and visualized by Coomassie staining. Bands were measured for intensity using Adobe Photoshop software (FIGS. 7 and 8).

Compound	inhibition of transglutaminase-mediated I-κBα polymerization
ENLQMLP [I-κBα-derived synthetic peptide, residues 275-281]	inhibit transglutaminase-mediated I-κBα polymerization
GVLTQSCTT [I-κBα-derived synthetic peptide, residues 161-169]	inhibit transglutaminase-mediated I-κBα polymerization
HSILKATNY [I-κBα-derived synthetic peptide, residues 173-181]	inhibit transglutaminase-mediated I-κBα polymerization
IHEEKALTM [I-κBα-derived synthetic peptide, residues 83-91]	inhibit transglutaminase-mediated I-κBα polymerization
ILKAT [I-κBα-derived synthetic peptide, residues 175-179]	inhibit transglutaminase-mediated I-κBα polymerization
LGQLT [I-κBα-derived synthetic peptide, residues 269-273]	inhibit transglutaminase-mediated I-κBα polymerization
RDGLKKERLL [I-κBα-derived synthetic peptide, residues 17-26]	inhibit transglutaminase-mediated I-κBα polymerization
RIEEQLG [mutant of I-κBα-derived peptide]	inhibit transglutaminase-mediated I-κBα polymerization
RIEQELG [mutant of I-κBα-derived peptide]	inhibit transglutaminase-mediated I-κBα polymerization
RIQEELG [mutant of I-κBα-derived peptide]	inhibit transglutaminase-mediated I-κBα polymerization
RIQQQLG [I-κBα-derived synthetic peptide, residues 264-270]	inhibit transglutaminase-mediated I-κBα polymerization
TRIQQQLGQLTL [I-κBα-derived synthetic peptide, residues 263-274]	inhibit transglutaminase-mediated I-κBα polymerization
VFGGQRLTL [I-κBα-derived synthetic peptide, residues 309-317]	inhibit transglutaminase-mediated I-κBα polymerization
